Results as given in article PMC8633023, “Crystal structures of phosphatidyl serine synthase PSS reveal the catalytic mechanism of CDP-DAG alcohol O-phosphatidyl transferases” (Nature Communications, 2021).

Legend:
[1] = molecular target: T1, MjPSS (phosphatidyl serine synthase, PS synthase) (Methanocaldococcus jannaschii, UniProt Q58609); assay: X-ray crystal structure (SeMet protein, […] Å); MST also shows binding; conditions: open state with CDP-DAG, Ca2+, Mg2+; Ser1 catalytic site, Ser2 judged artefact; in 7POW covalent to CDP-DAG in one protomer
T1 construct: gene pssA; tag used for MST labelling), E. coli C41(DE3) membranes, solubilised in decyl maltoside; dimer

[2] = molecular target: T1, MjPSS (phosphatidyl serine synthase, PS synthase); assay: activity measured as a function of citrate; crystal structure ([…] Å); format: biochemical; conditions: reversible; reversed by more serine, blocks or competes with serine; structural site near Asn109, Lys111, Lys157, called non-specific by authors
purified protein = substrate: N[C@@H](CO)C(=O)O; assay: purified protein; conditions: co-substrate CDP-DAG, co-purified Mg2+ and Ca2+, 50 mM Tris-HCl pH 7.0, 50 mM NaCl, 0.2% DM, temperature of this assay not given
[3] = molecular target: the molecule itself; assay: crystal structure; crystals grown in meso (lipidic cubic / sponge phase, monoolein with 2% (w/w) CDP-DAG), 292 K; two molecules in the asymmetric unit

Q: For `N[C@@H](CO)C(=O)O` [L-serine], which “X-ray crystal structure (SeMet protein, 1.85 Å); MST also shows binding” value [1] is on record?
A: 7B1L for the open state with CDP-DAG and two serines

Q: How did the inhibition [2] turn out when `O=C(O)CC(O)(CC(=O)O)C(=O)O` [citrate] was run?
A: binding of citrate reversibly inhibits MjPSS, and that the inhibition is reversed by addition of more serine

B1: MjPSS (phosphatidyl serine synthase, PS synthase) (Methanocaldococcus jannaschii DSM 2661) (protein)
chain: MFSIRKIITISDYVTMLNIITGLLAILLNSFSLIYLSIIFDSLDGYVARKTGTVSDFGAELDSISDVVSFGVAPAYLLYNNFESNLALISAIIFCLCGALRLARFGILNVKGFIGLPIPAGALLLVGFCQLINSYLINSILAILIGLLMISDIKYPKYPNKIFIYIFAVSLCLAIVGIPHFALMLCLIYAIYGIIKYIRGD
Q: How did the Km (purified protein) turn out when B1 was run?
A: 460 ± 120 µM

Q: And the kcat (purified protein)?
A: 0.123 ± 0.007 s⁻¹

B2: phosphatidyl serine synthase from Methanocaldococcus jannaschii (native MjPSS) (enzyme)
chain: B1 chain
notes: phosphatidyl serine synthase (CDP-DAG alcohol O-phosphatidyl transferase, EC 2.7.8.8) of Methanocaldococcus jannaschii; the vector pSKB2LNB adds an N-terminal His6-Tag and a PreScission site; 400 protein residues are modelled for the two protomers; also called PS synthase; wild-type MjPSS; source: E. coli C41-(DE3), purified from membranes (DM-solubilised, Co2+ chelating Sepharose, size-exclusion …)
Q: With B2 as the molecule, how does the “stoichiometry N” value [3] read?
A: 2

B3: Seleno-methionine (SeMet) MjPSS (enzyme, Methanocaldococcus jannaschii)
chain: B1 chain
modifications: selenomethionine in place of methionine
notes: phosphatidyl serine synthase (CDP-DAG alcohol O-phosphatidyl transferase, EC 2.7.8.8) of Methanocaldococcus jannaschii; same construct as m1, SeMet substituted; Same construct as m1; also called SeMet-labelled protein; SeMet substituted protein; source: E. coli, M9 minimal medium with SeMet, IPTG-induced; purified as native MjPSS (final SEC on Superdex 200 Increase)
Q: With B3 as the molecule, how does the “stoichiometry N” value [3] read?
A: 2
